{"source": "IntAct's records for PubMed 32296183", "key": {"[1]": {"target": "T1, crtp1_human CYSRT1 (UniProt A8MQ03)", "T1 sequence": "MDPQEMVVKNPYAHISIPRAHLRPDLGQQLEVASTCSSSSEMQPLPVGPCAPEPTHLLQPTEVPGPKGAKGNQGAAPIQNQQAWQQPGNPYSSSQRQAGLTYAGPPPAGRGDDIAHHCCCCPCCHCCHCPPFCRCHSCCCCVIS"}, "[2]": {"target": "gp152_human GPR152 (UniProt Q8TDT2)"}, "[3]": {"target": "T2, cgrf1_human CGRRF1 (UniProt Q99675)", "T2 sequence": "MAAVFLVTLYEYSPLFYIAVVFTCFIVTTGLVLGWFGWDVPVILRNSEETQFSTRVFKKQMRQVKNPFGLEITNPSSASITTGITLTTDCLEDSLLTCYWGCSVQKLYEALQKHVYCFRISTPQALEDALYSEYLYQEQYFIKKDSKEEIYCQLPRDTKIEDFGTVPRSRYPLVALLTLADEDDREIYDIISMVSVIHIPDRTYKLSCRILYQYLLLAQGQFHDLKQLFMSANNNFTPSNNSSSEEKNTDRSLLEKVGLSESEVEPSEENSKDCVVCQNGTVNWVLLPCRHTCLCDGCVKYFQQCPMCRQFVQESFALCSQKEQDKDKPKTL"}, "[4]": {"target": "T3, jam1_human F11R (UniProt Q9Y624)", "T3 sequence": "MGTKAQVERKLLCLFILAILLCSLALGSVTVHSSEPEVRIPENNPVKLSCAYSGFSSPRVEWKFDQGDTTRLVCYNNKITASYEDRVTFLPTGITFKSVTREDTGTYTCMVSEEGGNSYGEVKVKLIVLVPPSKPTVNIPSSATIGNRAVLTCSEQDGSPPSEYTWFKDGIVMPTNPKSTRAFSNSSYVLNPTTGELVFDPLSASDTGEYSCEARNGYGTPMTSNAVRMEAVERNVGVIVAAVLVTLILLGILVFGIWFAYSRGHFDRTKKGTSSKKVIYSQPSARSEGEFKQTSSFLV"}, "[5]": {"target": "ergi3_human ERGIC3 (UniProt Q9Y282)"}, "[6]": {"target": "T4, amgo1_human AMIGO1 (UniProt Q86WK6)", "T4 sequence": "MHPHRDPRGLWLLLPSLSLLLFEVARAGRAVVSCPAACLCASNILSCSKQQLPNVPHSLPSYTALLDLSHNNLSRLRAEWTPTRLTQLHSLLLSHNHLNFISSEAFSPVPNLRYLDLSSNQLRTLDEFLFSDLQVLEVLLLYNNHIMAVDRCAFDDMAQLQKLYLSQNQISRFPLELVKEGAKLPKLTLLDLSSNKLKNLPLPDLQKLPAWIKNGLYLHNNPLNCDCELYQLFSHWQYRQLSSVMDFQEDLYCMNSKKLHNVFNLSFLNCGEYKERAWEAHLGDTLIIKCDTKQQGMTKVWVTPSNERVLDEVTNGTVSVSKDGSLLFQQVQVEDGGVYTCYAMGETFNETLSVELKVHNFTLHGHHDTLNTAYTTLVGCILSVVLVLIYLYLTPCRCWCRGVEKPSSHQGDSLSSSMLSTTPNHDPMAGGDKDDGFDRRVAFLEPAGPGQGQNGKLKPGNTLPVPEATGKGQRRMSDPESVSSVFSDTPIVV"}, "[7]": {"target": "comt_human COMT (UniProt P21964)"}, "[8]": {"target": "T5, tmem9_human TMEM9 (UniProt Q9P0T7)", "T5 sequence": "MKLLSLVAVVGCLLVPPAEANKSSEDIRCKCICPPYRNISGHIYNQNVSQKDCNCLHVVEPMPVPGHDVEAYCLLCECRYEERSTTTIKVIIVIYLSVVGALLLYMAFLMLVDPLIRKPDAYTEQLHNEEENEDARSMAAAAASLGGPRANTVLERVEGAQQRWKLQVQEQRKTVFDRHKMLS"}, "[9]": {"target": "cxa5_human GJA5 (UniProt P36382)"}}}
{"substance": "Acyltransferase PGAP2 (Homo sapiens) (from UniProt Q9UHJ9-5) T160I", "values": [{"measurement": "effect of a mutation on the interaction", "setting": "[1]", "result": "disrupting interaction strength"}, {"measurement": "effect of a mutation on the interaction", "setting": "[2]", "result": "with no effect"}, {"measurement": "effect of a mutation on the interaction", "setting": "[3]", "result": "with no effect"}, {"measurement": "effect of a mutation on the interaction", "setting": "[4]", "result": "disrupting interaction strength"}, {"measurement": "effect of a mutation on the interaction", "setting": "[5]", "result": "with no effect"}, {"measurement": "effect of a mutation on the interaction", "setting": "[6]", "result": "disrupting interaction strength"}, {"measurement": "effect of a mutation on the interaction", "setting": "[7]", "result": "with no effect"}, {"measurement": "effect of a mutation on the interaction", "setting": "[8]", "result": "with no effect"}, {"measurement": "effect of a mutation on the interaction", "setting": "[9]", "result": "with no effect"}]}
